This is an account of results in PMC4471362.

Substrate in the data set: Nc1ncnc2c1ncn2[C@@H]1O[C@H](COP(=O)(O)OP(=O)(O)OP(=O)(O)O)[C@@H](O)[C@H]1O
As to the kind of experiment: purified protein. The conditions noted are these: basal ATPase, 0.4 μM protein, 10 mM HEPES-KOH pH 7.5, 100 mM KCl, 2 mM MgCl2, 0.5 mM DTT, kcat unit as printed.

B1: PfHsp70-z (Plasmodium falciparum 3D7) (protein)
chain: MSVLGIDIGNDNSVVATINKGAINVVRNDISERLTPTLVGFTEKERLIGDSALSKLKSNYKNTCRNIKNLIGKIGTDVKDDIEIHEAYGDLIPCEYNYLGYEVEYKNEKVVFSAVRVLSALLSHLIKMAEKYIGKECKEIVLSYPPTFTNCQKECLLAATKIINANVLRIISDNTAVALDYGMYRMKEFKEDNGSLLVFVNIGYANTCVCVARFFSNKCEILCDIADSNLGGRNLDNELIKYITNIFVNNYKMNPLYKNNTPELCPMGTGRLNKFLVTSTASDQQNGINNKVRIKLQEVAIKTKKVLSANNEASIHVECLYEDLDCQGSINRETFEELCSNFFLTKLKHLLDTALCISKVNIQDIHSIEVLGGSTRVPFIQNFLQQYFQKPLSKTLIADESIARGCVLSAAMVSKHYKVKEYECVEKVTHPINVEWHNINDASKSNVEKLYTRDSLKKKVKKIVIPEKGHIKLTAYYENTPDLPSNCIKELGSCIVKINEKNDKIVESHVMTTFSNYDTFTFLGAQTVTKSVIKSKDEKKKADDKTEDKGEKKDAKDQEQNDDKDQTNDNNMNEKDTNDKKEKNNETNSPNKTELKKGEEGKVQTCYTTIPIETLLAQGSYSSKDIFNFSEQEINMQHSDILEGERLKHLNELETIIYESRSRLNGIYKNFVMDDERDRILLSLDDYENWLYDNIEENKNMFIKKKEEIRDLIKNIVQKFDVYNSKQQNLGNIINHLNNIITQCSNKPSDESQNIINRTTKFLNNINSLQEQEKNKPLYEPPVYTLNDIEAEFNEVTQLAQKFFSKLEVEELAKQKAKQEKEKEKEKEKEKEKEKEKNEETNLDANEEQNNEAKNNEEKENSTKNENSANPEE
As a reminder, the Vmax is the top rate of the reaction or transport when substrate is in excess. Turning to B1, the Km was 283 (+/-3) μM and the Vmax was 0.0198 µmol/min/mg.
